Patent US20260263521A1 (AIMED BIO, published 2026)
Residue numbers refer to the chain shown, from its start. Names may count otherwise.

T1: mouse CD200R1 protein (R&D systems, 2554-CD) (mouse, UniProt Q9ES57 26-238, limits assumed)
T1 construct: Bought; construct not described
T1 sequence (looked up): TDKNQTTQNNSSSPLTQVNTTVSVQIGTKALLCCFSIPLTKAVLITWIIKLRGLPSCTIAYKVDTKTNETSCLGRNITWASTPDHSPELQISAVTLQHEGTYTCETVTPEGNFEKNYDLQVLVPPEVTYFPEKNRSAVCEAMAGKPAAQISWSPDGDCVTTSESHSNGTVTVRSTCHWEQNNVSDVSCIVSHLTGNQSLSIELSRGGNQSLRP

T2: human CD200R1 recombinant protein (construct not stated) (human, UniProt Q8TD46 27-266, limits assumed)
T2 sequence (looked up): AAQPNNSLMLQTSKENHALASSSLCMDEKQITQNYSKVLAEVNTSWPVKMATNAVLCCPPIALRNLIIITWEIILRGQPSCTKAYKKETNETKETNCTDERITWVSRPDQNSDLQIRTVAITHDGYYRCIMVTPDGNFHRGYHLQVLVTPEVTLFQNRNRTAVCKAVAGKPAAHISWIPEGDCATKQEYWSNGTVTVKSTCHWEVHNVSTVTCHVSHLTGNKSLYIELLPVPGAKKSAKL

T3: human CD200RLa (Sino Biological, 11620-H08H) recombinant protein (human, UniProt Q6Q8B3 24-239)
T3 construct: Bought; construct not described
T3 sequence (looked up): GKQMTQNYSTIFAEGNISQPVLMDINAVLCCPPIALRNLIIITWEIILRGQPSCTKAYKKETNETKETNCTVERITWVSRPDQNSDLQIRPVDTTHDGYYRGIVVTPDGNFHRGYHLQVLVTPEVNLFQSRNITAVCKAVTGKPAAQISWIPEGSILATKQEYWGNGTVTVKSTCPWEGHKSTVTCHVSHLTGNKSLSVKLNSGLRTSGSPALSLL

T4: human CD200R1 expressed on cells (Jurkat-CD200R1, U937-CD200R1, HH cells) (human, UniProt Q8TD46 25-348)
T4 construct: whole, on cells; also called HH (CRL-2105); cell surface-expressed CD200R1
T4 sequence (looked up): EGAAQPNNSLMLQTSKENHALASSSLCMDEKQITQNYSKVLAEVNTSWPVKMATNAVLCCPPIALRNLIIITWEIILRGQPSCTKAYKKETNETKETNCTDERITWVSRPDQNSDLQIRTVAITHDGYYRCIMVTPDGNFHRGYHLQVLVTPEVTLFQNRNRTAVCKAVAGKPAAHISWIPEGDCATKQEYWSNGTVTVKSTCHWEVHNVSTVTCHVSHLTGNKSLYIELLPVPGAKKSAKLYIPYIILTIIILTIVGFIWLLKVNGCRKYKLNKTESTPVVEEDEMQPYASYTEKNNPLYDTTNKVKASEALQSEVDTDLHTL

B1: P001013 (IgG) (antibody, V domains shown)
VH: EVQLLESGGGLVQPGGSLRLSCAASGFTFSGYDMSWVRQAPGKGLEWVSGIPPGDGSTYYADSVKGRFTISRDNSKNTLYLQMNSLRAEDTAVYYCAKHLVSDHPPSQYSDDGMDVWGQGTLVTVSS
VL: QSVLTQPPSASGTPGQRVTISCSGSSSNIGNNDVNWYQQLPGTAPKLLIYYNSQRPSGVPDRFSGSKSGTSASLAISGLRSEDEADYYCGSWDYSLNGYVFGGGTKLTVL
B2: 5E9 (hybridoma clone) (antibody, V domains shown)
VH: QVQLQQSGAELARPGASVKLSCKASGYTFTSYWMQWVKQRPGQGLEWIGAIYPGDGDTRYTQKFKGKATLTADKSSSTAYMQLRSLASEDSAVFYCARGGVTTLVPYFFDYWGQGATLTVSS
VL: DVLMTQTPLSLPVSLGDQASISCRSSQSIVHSNGNTYLEWYLQKPGQSPKLLIYKVSNRFSGVPDRFSGSGSGTDFTLKISRVEAEDLGVYYCFQGSHVPPTFGGGTKLEIK
B3: 6A8 (hybridoma clone) (antibody, V domains shown)
VH: QVQLQQPGAELVKPGAPVKLSCKASGYTFTSYWMNWVKQRPGRGLEWIGRIDPSDSETHYNQKFKDKATLTVDKSSSTAYIQLSSLTSEDSAVYYCARSGGWLPGFAYWGQGTLVTVSA
VL: ENVLTQSPAIMSASPGEKVTMTCSASSSLSYMLWYQQKSSTSPKLWIYDTSKLASGVPGRFSGSGSGNSYSLTISSMEAEDVGTYYCFQGSGNPLMYTFGGGTKLEIK
B4: 1F1 (hybridoma clone) (antibody, V domains shown)
VH: B3 VH with L11F, S54A, T58I, L83F
VL: B3 VL with S30I, L33H, S75N, G83A, N93Y
B5: 3G4 (hybridoma clone) (antibody, V domains shown)
VH: B3 VH with Y27F, F29L, S84T
VL: B3 VL with S26R, L29V, L33H, S40R, G83A, N93D
B6: 6C3 (hybridoma clone) (antibody, V domains shown)
VH: QVQLQQPGAELVRPGASVKLSCKASAYTFTSYWMNWVKQRPEQGLEWIGRIDPYDSETHYNQKFKDKAILTVDKSSSTAYMQLSSLTSEDSAVYYCARVDGNHLFDYWGQGTTLTVSS
VL: DIKMTQSPSSMYASLGERVTITCKASQDINSYLSWFQQKPGKSPKTLIYRANRLVDGVPSRFSGSGSGQDYSLTISSLEYEDMGIYYCLQYDEFPYTFGGGTKLEIK
B7: P001017 (chimeric OX108) (antibody, V domains shown)
VH: EVKLQQSGPELVKPGASVKMSCKASGYTFTSYVMHWVKQKPGQGLEWIGYINPYNDDTNYNEKFKGKATLTSDKSSSTAYMELSSLTSEDSAVYYCAREDYYGSRWGYWGQGTTLTVSS
VL: DIVLTQSPASLAVSLGQRATISCRASKSVSTSGYSYMHWYQQKPGQPPKLLIYLASNLESGVPARFSGSGSGTDFTLNIHPVEEEDAATYYCQHSRELLTFGAGTKLELK
notes: also called QX108; murine anti-CD200R1 antibody OX108
B8: P001018 scFv mutant H3-Y102K (scFv)
scFv: QVQLVQSGAEVKKPGASVKVSCKASGYTFTSYVMHWVRQAPGQGLEWMGYINPYNDDTNYNEKFKGRVTMTRDTSTSTVYMELSSLRSEDTAVYYCAREDYYGSRWGKWGQGTLVTVSSGGGGSGGGGSGGGGSDIVLTQSPASLAVSPGQRATITCRASKSVSTSGYSYMHWYQQKPGQPPKLLIYLASNLESGVPARFSGSGSGTDFTLTINPVEANDTANYYCQHSRELLTFGQGTKVEIK
B9: P001018 scFv mutant L3-R92S (scFv)
scFv: B8 scFv with K108Y, R230S
B10: P001018 scFv mutant L3-R92H (scFv)
scFv: B8 scFv with K108Y, R230H
B11: P001018 scFv mutant L3-L95D (scFv)
scFv: B8 scFv with K108Y, L233D
B12: P001018 scFv mutant L3-L94H (scFv)
scFv: B8 scFv with K108Y, L232H
B13: P001018 scFv mutant H3-Y102T (scFv)
scFv: B8 scFv with K108T
B14: P001018 scFv mutant L3-T96R (scFv)
scFv: B8 scFv with K108Y, T234R
B15: P001018 scFv mutant L3-L94S (scFv)
scFv: B8 scFv with K108Y, L232S

The binders below were run against T1, mouse CD200R1 protein (R&D systems, …) (assay: ELISA, plate-bound mouse CD200R1 (2 ug/mL), IgG 0.0192-300 nM, OD 450 nm; panel 'mouse CD200R1').
Method: 96-well plates were coated with human CD200R1 (R&D systems, 3414-CD) and mouse CD200R1 protein (R&D systems, 2554-CD) at a concentration of 2 μg/mL at 4° C. for 16 hours and then were blocked with 3% skim milk.
Color was developed with a TMB substrate solution (Thermo Scientific, 34029, 1-Step™ TMB-ELISA Ultra Substrate Solution). The color reaction was stopped with stop solution (Invitrogen, SS04, ELISA Stop Solution). The absorbance was measured at an optical density of 450 nm.

| Binder | binding result |
| --- | --- |
| B1 | no binding (tested: 300 nM) |

The binders below were run against T2, human CD200R1 recombinant protein … (assay: hybridoma ELISA on human CD200R1).

| Binder | ELISA O.D. [O.D.] |
| --- | --- |
| B2 | ≥ 1.5 |
| B3 | ≥ 1.5 |
| B4 | ≥ 1.5 |
| B5 | ≥ 1.5 |
| B6 | ≥ 1.5 |

Each binder was assayed against T3, human CD200RLa (Sino Biological, …) (assay: ELISA, plate-bound human CD200RLa (2 ug/mL), antibody 0.0192-300 nM, O.D 450 nm; panel 'recombinant human CD200RLa').
Method: 96-well plates were coated with human CD200RLa (Sino Biological, 11620-H08H) and monkey CD200RLa (Sino Biological, 11576-C02H) recombinant proteins at a concentration of 2 μg/mL at 4° C. for 16 hours, and blocked with 3% skim milk for 1 hour. […] Color was developed with a TMB substrate solution (Thermo Scientific, 34029, 1-Step™ Ultra TMB-ELISA Substrate Solution). The color reaction was stopped with stop solution (Invitrogen, SS04, ELISA Stop Solution).

| Binder | binding result |
| --- | --- |
| B7 | no binding (tested: 300 nM) |
| B1 | no binding (tested: 300 nM) |

The binders below were run against T4, human CD200R1 expressed on cells … (assay: flow cytometry, HH cells; drawn table).

| Binder | Geo mean (%) at 0.05 nM [%] | Geo mean (%) at 0.19 nM [%] | Geo mean (%) at 0.78 nM [%] | Geo mean (%) at 3.125 nM [%] | Geo mean (%) at 12.5 nM [%] | Geo mean (%) at 50 nM [%] | Geo mean (%) at 200 nM [%] | Geo mean (%) at 800 nM [%] |
| --- | --- | --- | --- | --- | --- | --- | --- | --- |
| B8 | 2.1 | 6.1 | 17.1 | 35.3 | 67 | 85.7 | 104 | 120 |
| B9 | 1.7 | 4.5 | 12 | 33.9 | 73.2 | 90.1 | 108 | 116 |
| B10 | 3.3 | 8.7 | 19.8 | 43.8 | 84.1 | 100 | – | – |
| B11 | 2 | 5.6 | 16.4 | 35.6 | 73.8 | 95.3 | 119 | 145 |
| B12 | 2.2 | 5.6 | 18.5 | 35.3 | 59.1 | 75.2 | 96.7 | 105 |
| B13 | 2 | 5.8 | 15.5 | 33.2 | 69.7 | 91.6 | 107 | 121 |
| B14 | 2.7 | 7.5 | 19.4 | 40.2 | 79.5 | 91.1 | 116 | 123 |
| B15 | 1.8 | 5.9 | 17.3 | 35.5 | 62 | 76.6 | 98.7 | 110 |

The binders below were run against T4, human CD200R1 expressed on cells … (assay: flow cytometry, HH cells; drawn table, row EC50).

| Binder | EC50 [nM] |
| --- | --- |
| B8 | 9.79 |
| B9 | 7.76 |
| B10 | 6.14 |
| B11 | 13.1 |
| B12 | 9.4 |
| B13 | 9.43 |
| B14 | 7.26 |
| B15 | 9.52 |
